The text below walks through data of patent US20040110684A1.

Test [1] deals with wild-type eNOS (construct expressed in COS cells) (UniProt P29474). The experiment in a line: cell-based or functional assay.
Test [2] has as its target S1177A eNOS mutant (construct expressed in COS cells) (UniProt P29474). The experiment in a line: cell-based or functional assay.
The target in test [3] is endothelial nitric oxide synthase (eNOS), endogenous, human umbilical vein endothelial cells (HUVECs) (human) (UniProt P29474). The experiment in a line: eNOS IP, phospho-Ser473-Akt immunoblot, HUVEC lysates. On the technique in general: Immunoblotting shows a protein as a band on a membrane.
Chain of endothelial nitric oxide synthase (eNOS), endogenous, human umbilical vein endothelial cells (HUVECs) (human) (P29474 2-1203 limits assumed): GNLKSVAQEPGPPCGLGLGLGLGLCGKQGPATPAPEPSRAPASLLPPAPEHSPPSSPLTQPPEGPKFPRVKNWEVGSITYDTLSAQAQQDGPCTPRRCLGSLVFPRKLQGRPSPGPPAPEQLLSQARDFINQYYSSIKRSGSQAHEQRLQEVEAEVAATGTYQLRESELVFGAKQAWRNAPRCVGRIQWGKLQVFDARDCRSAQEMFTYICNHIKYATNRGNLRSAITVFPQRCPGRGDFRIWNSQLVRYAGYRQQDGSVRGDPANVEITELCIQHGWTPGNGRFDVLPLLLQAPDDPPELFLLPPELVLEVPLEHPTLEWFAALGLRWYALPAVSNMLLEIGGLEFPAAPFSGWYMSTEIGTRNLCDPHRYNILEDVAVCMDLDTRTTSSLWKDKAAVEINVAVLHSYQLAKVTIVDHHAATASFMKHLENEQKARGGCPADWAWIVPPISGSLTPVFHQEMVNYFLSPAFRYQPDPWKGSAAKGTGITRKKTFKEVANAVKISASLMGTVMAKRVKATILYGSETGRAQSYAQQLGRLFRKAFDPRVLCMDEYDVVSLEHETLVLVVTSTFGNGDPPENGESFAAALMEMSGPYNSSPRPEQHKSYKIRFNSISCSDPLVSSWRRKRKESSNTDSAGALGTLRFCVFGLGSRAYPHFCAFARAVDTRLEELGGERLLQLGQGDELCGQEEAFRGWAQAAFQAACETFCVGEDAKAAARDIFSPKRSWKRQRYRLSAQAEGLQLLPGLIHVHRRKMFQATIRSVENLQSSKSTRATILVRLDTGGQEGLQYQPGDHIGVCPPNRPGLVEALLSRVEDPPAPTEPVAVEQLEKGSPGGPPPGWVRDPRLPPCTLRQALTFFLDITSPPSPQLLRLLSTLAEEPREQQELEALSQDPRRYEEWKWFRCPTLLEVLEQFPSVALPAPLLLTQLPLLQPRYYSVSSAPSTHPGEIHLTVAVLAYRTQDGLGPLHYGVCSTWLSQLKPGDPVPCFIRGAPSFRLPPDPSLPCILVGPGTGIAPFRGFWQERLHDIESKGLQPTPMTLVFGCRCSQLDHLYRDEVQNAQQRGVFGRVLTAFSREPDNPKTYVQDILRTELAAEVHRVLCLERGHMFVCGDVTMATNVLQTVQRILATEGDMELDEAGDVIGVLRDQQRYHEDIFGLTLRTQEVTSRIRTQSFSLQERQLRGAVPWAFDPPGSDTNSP

Chain of wild-type eNOS (construct expressed in COS cells) (P29474 2-1203 limits assumed): as above
Chain of S1177A eNOS mutant (construct expressed in COS cells) (P29474 2-1203 S1177A limits assumed): as the sequence (P29474 2-1203 limits assumed) above, with S1176A counted along it

For “Myc-tagged active Akt (T308D/S473D) (from UniProt P31749 1-480) (enzyme)”, in test [1], the increase in nitrite production, co-transfected COS cells is 64%; the increase over basal level of nitrite production, COS cells co-transfected with WT-eNOS, active Akt and also recombinant hsp90 amounted to 152%.

In the case of “recombinant hsp90 (expressed from hsp90 cDNA, gift of Dr W. C. Sessa)”, the increase in nitrite production, co-transfected COS cells in test [2] stood at 40%; in test [1], 49%. As to “phospho-Ser473-Akt, endogenous, human umbilical vein endothelial cells (HUVECs) (from UniProt P31749 1-480) (enzyme)”, in test [3], the fold increase of phospho-Akt enrichment in the eNOS IP, statin plus recombinant hsp90 vs statin alone was above 3 fold.
